From US20230416394A1

What was measured:
human CD39 (human) = human CD39 (human) (UniProt P49961); test: cell-based or functional assay
human TGFβ1 (human) [1] = target: human TGFβ1 (human) (UniProt P01137); test: ELISA, coated human TGFβ1
human TGFβ1 (human) [2] = target: human TGFβ1 (human) (UniProt P01137); test: Octet, ES014-1 on sensor, TGFβ gradient
[3] = target: human CD39 protein (Octet assays) (human); test: Octet, ES014-1 on sensor, CD39 protein gradient
human TGFβ1 (human) [4] = target: human TGFβ1 (human) (UniProt P01137); test: ELISA, blocking of TGFβRII-His binding to coated TGFβ1

Chain of human TGFβ1 (human) (P01137 279-390 limits assumed): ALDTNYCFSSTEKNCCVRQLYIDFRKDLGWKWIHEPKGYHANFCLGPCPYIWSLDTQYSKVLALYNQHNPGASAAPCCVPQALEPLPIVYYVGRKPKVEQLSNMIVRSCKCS
Chain of human CD39 (human) (P49961 whole entry): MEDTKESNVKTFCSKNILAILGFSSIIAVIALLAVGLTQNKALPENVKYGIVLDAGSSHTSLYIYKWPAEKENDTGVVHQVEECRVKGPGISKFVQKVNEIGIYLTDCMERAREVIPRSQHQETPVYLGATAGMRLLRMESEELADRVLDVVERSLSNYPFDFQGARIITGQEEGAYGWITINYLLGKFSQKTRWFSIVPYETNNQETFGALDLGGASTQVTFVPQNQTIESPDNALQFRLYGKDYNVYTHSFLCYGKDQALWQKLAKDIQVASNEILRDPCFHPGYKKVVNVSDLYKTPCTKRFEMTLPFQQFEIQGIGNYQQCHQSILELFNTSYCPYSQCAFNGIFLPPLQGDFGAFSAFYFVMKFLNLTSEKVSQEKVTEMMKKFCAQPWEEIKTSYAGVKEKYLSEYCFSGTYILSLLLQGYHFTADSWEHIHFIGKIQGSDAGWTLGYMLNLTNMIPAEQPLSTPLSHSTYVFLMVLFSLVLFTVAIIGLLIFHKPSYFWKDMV

Question: Which results are given for ES014-1 (bispecific antibody)?
Answer: IC50 to CD39 ATPase activity on MOLP-8 cells (CellTiterGlo) (human CD39 (human)): 1.21 nM; EC50 (human TGFβ1 (human) [1]): 0.26 nM; Kd (human TGFβ1 (human) [2]): 0.037 nM; koff (human TGFβ1 (human) [2]): 0.000234 s⁻¹; kon (human TGFβ1 (human) [2]): 6.32e+06 M⁻¹ s⁻¹; Kd [3]: 0.376 nM; koff [3]: 3.44e-05 s⁻¹; kon [3]: 91400 M⁻¹ s⁻¹; IC50 (human TGFβ1 (human) [4]): 3.73 nM
